Laboratory results as given in paper PMC4497383.

Biological target: 3xFLAG-tagged nascent chain of Sec61β with the transferrin receptor TMD, truncated at position 128 (TMD exposed)
Test: co-IP; unbound fractions of the translation reactions after anti-FLAG purification of the RNCs, immunoblotted relative to serial dilutions of total lysate (depletion)

percent of SRP in the lysate depleted: 90%
Substance: SRP54 subunit of the signal recognition particle (SRP) (from UniProt G1STX4 1-499) (natural protein)
